Assay: yeast display, Sf9 membrane polyspecificity reagent, FACS + sequencing; frameworks hold sequencing errors
Procedure, shortened: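 A nanobody's polyreactivity label depends on the gate it was sorted from. Yeast display cells were stained with 10% biotinylated, detergent-solubilized Sf9 membrane reagent for 1 hour at 4 °C, enriched on streptavidin microbeads and sorted by FACS. The low and high (top ~1%) gates were set on anti-HA fluorescence for expression and streptavidin fluorescence for reagent binding.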

| Sequence | polyreactivity (PSR sort gate) |
| --- | --- |
| QVQLLESGGGLVQAGGSLRLSCAASGRIFHYNAMGWYRQAPGKERELVAAITRRGTSTYYADSVKGRFTISRDNAKNTVYLQMNSLKPEDTAVYYCNTDTYYRLLDYWGQGTQVTVSS | low polyreactivity |
| QVQLLESGGGLVQAGGSLRLSCAASGRILTGYAMGWYRQAPGKERELVASINWRGGSTYYADSVKRRFTISRDNAKNTVYLQLNSLKPEDTAVYYCAARVRVTGTYYTKYDYWGQGTQVTVSS | high polyreactivity |
| QVQLLESGGGLVQAGGSLRLSCAASGRTFAYNAMAWDRQAPGTERELVADITSGGSTYYADSVKGRFTISRDNAKNTVYLQMNSRKPEDTAVYYCAGYPQFWYWDYNYWGQGTQVTVSS | high polyreactivity |
| QVQLLESGGGLVQAGGSLRLSCAASGRTFEYYAMGWYRQAPGKERELDAAITSGGITYYADSVKGRFTISRDNAKITVYLQMNSLKPEDSAVYYCAAKGWYFGYGRYGYWGQGTQVTVSS | high polyreactivity |
| QVQLLESGGGLVQAGGSLRLSCAASGRTFSGYAMGWYRQAPGKERELVAAISESGDGTYYADSVKGRFTISRDNAKNTVYLQMNSLKPEDTAVYYCAADGTLFSEYYWFFGYHDYWGQGTQVTVSS | high polyreactivity |
| QVQLLESGGGLVQAGGSLRLSCAASGRTFTYYAMGWYRQAPGKERELVASISTTGRTYYADSVKGRFTISRDNAKNTVYLQMNSLKPDDTAVYYCATRSRYYYDYWGQGTQVTVSS | high polyreactivity |
| QVQLLESGGGLVQAGGSLRLSCAASGSIFEGNGMGWYRQAPGKERELVAAITFRSGSTYYADSVKGRFTISRDNAKNTVYLQMNSLKPEDTAVYYCAADEYYEVSAYDYWGQGTQVTVSS | low polyreactivity |
| QVQLLESGGGLVQAGGSLRLSCAASGSIFGGYSMGWYRQAPGKERELVAAISWSGASTYYADSVKGRFTISRDNATTTVSLQMNSLKPEDTAVYSCAARSRVDLARSGYWGQGCQVTVSS | low polyreactivity |
| QVQLLESGGGLVQAGGSLRLSCAASGSIFGRYVMGWYRQAPGKERELVPRITQSGGSTYYADSVKGRFTISRDNAKNTVYLQMNSLKPEDTAVYYCNVARWGNIPVGEYDYWGQGTQVTVSS | high polyreactivity |
| QVQLLESGGGLVQAGGSLRLSCAASGSIFYLYAMGWYIQAPGKERELVAVIRRGGSTKYADSVKGRFTISRDNSKNSVYLQMNSLKPEDTAVYDCNVVGYAYGWQYDYWGQGTQVNVSS | high polyreactivity |
| QVQLLESGGGLVQAGGSLRLSCAASGSIFYPYALGWYRQAPGKERELVAGISRSGASTYYADSVKGRFTISRDKAKNTVYLQMNSLKPEDTAVYYCAADDWTRNYWGQGTQVTVSS | low polyreactivity |
| QVQLLESGGGLVQAGGSLRLSCAASGSIINRYAMGLYRQAPGKERELVAAISWRGGSTYYADSVKGRFTISRDNAKNTVYLQMNSLKPEDTAVYYCNKVSYVKSGYWGQGTQVTVSS | high polyreactivity |
| QVQLLESGGGLVQAGGSLRLSCAASGSTFDDYAMGWYRQAPGKEREFVAAIDWSGGSTYYADSVKGRFTISRDNAKNTVYLQMNSLKPEDTAVYYCNADPDGSFDYWGQGTQVTVSS | low polyreactivity |
| QVQLLESGGGLVQAGGSLRLSCAASGSTFDIYTMGWYRQAPGKERELVAAISRSGTRTYYADSVKGRFTISRDNAKNTVYLQMNSLKPEDTAVYYCNAVQQYYGTWGYGYWGQGTQVTVSS | high polyreactivity |
| QVQLLESGGGLVQAGGSLRLSCAASGSTFLIYAMGWYRQAPGKERELVASINLNTGRTSYADSVKGRFTISRDNAKNTVYLQMNSLKPEDTAVYYCAAELWVRFRGVKEYDYWGQGTQVSVSS | high polyreactivity |
| QVQLLESGGGLVQAGGSLRLSCAASGSTFQAYAMGWYRQAPGKERELVAAISVSDGITYYADSVKGRFTISRDNAKNTVYLQMNSLKPEDTAVYYCAAEISLSRSDRIESYDYWGQGTQVTVSS | low polyreactivity |
| QVQLLESGGGLVQAGGSLRLSCAASGSTFVGYAMGWYRQAPGKERELVAAISGSGTSTYYADSVKGRFTISRDNAKNTVYLQMNSLKPEDTAVYYCNADPIFVYSSYNYWGQGTQVTVSS | low polyreactivity |
